Data from publication PMC2248580.

Biological target: human activated blood coagulation factor X (FXa) (human)
Test: SPR; […]; 37°C; HBS (10 mM Hepes, 150 mM NaCl, 5 mM CaCl2, 0.005% P20, pH 7.4); Langmuir fit; […]

Substance | Kd [nM] | koff [s⁻¹] | kon [M⁻¹ s⁻¹]
CbII, the basic subunit of the CbI-CbII complex (β-neurotoxin) from Pseudocerastes fieldi venom (enzyme) | 20 | 0.0085 | 420000
bAhp, the basic PLA2 from Gloydious (Agkistrodon) halys pallas venom (from UniProt O42187 17-138) (enzyme) | 400 | 0.016 | 40000
